Here are results for three molecules from article PMC4264578.

Like-named read-outs stand apart in the source and are kept apart here.

Common to all, as to experiment: EMSA
Background: Mobility shift assays separate free from complexed probe on a gel.

In data set [1] the target is T1, GST-SUV39H1 (UniProt O43463 1-412).
T1 sequence: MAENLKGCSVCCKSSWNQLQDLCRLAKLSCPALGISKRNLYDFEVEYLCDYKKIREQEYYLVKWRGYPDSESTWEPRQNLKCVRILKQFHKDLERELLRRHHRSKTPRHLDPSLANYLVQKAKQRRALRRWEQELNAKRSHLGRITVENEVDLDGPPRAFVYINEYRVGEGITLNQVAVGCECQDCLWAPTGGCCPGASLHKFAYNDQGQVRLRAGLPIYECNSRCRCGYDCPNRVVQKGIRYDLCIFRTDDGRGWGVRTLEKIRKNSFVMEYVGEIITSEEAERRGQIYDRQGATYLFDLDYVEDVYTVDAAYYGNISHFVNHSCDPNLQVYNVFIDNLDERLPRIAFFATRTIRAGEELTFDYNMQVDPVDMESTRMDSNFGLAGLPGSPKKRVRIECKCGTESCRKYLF

In data set [2] the target is T1, GST-SUV39H1. The source holds these as a separate data set.
For data set [3], the target named is T1, GST-SUV39H1. This is another data set of the same source.

B1: (UUAGGG)10 TERRA RNA (ssRNA)
RNA: UUAGGGUUAGGGUUAGGGUUAGGGUUAGGGUUAGGGUUAGGGUUAGGGUUAGGGUUAGGG
Regarding B1, the binding result in the data set with GST-SUV39H1 [1] was “binds”.

In the case of UUAGGGUUAGGGUUAGGGUUAGGGUUAGGGUUAGGGUUAGGG (ssRNA) [(UUAGGG)7 TERRA RNA], the binding result with GST-SUV39H1 [2] is “binds”.

B2: (TTAGGG)10 DNA (ssDNA)
DNA: TTAGGGTTAGGGTTAGGGTTAGGGTTAGGGTTAGGGTTAGGGTTAGGGTTAGGGTTAGGG
With B2, the binding result in the data set with GST-SUV39H1 [3] is recorded as “no binding”.
